Read-outs that look alike come from different tables or passages of the source.
Columns and labels:
[1] = target: T1, Fusion protein of LAG-3 extracellular region and hIgG1 Fc (human); test: ELISA, LAG-3-Fc captured by anti-human Fc on plate (which fusion: inferred)
T1 construct: Limits of the signal peptide are marked only by lost underlining; also called LAG-3-Fc; LAG-3-Fc fusion protein
Text: The binding ability of anti-LAG-3 antibody to human LAG-3 protein was detected by ELISA assay. LAG-3 fusion protein with Fc or mFc tag was immobilized into 96-well microtiter plate by binding to anti-Fc or anti-mFc antibody coated on the microtiter plate, the strength of the signal after the addition of the antibody was used to determine the binding activity of the antibody to LAG-3, the specific experimental method is as follows.
The goat anti-human Fc antibody (Jackson Immuno Research, Cat No. 109-005-008) or goat anti-mouse Fc antibody (Sigma, Cat No. M3534-1ML) was diluted to a concentration of 2 μg/ml with PBS buffer at pH 7.4 (Sigma, Cat No. P4417-100TAB), and added to a 96-well plate at a volume of 50 μl/well and then, the plate was incubated in the incubator at 37° C. for 2 hours. After discarding the liquid, the plates were blocked with 200 μl/well of blocking solution containing 5% skim milk (Bright Dairy, skim milk powder) in PBS, and incubated in the incubator at 37° C. for 2.5 hours or overnight at 4° C. (16-18 hours). After blocking, the blocking solution was discarded and the plate was washed 5 times with PBST buffer (PH7.4 PBS containing 0.05% tween-20). […]

[2] = target: T1, Fusion protein of LAG-3 extracellular …; test: competition: biotin-LAG-3-Fc binding to fixed Daudi cells, antibody titrated
Experimental: Daudi cells (human leukemia cells, purchased from the cell bank in Chinese Academy of Sciences) were seeded in 96-well plate with a density of 3×10⁵/well. After centrifugation at 1000 rpm, the supernatant was discarded and then the plate was fixed with 4% PFA for 30 min at room temperature. The plate was washed 4 times with PBS after discarding the fixed solution, and the plate was blocked with 200 μl/well of blocking solution containing 5% skim milk (Bright Dairy, skim milk powder) diluted in PBS, and incubated at 37° C. for 2.5 hours. After blocking, the blocking solution was discarded and the plate was washed 5 times with PBST buffer (pH7.4 PBS containing 0.05% tween-20), added with 50 μl/well mixture of biotin-labeled (Biotin labeling kit, Dojindo Chemical, Cat No. LK03) LAG-3-Fc fusion protein (produced in-house, SEQ ID NO: 3) and gradient concentrations of the antibody to be tested, wherein the biotin-labeled LAG-3-Fc fusion protein has been diluted with sample diluent (PH7.4 PBS containing 1% BSA) at a final concentration of 0.4 μg/ml, and pre-mixed for an hour, then the plate was incubated at 37° C. for 1 h. […] The OD value at a wavelength of 450 nm was read on NOVOStar microplate reader, and then the activity of the LAG-3 antibody in blocking the binding of the antigen to Daudi cells was calculated.

[3] = target: T1, Fusion protein of LAG-3 extracellular …; test: as above; remark: listed apart in the source
Summary of the method: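 Daudi cells were PFA-fixed and blocked, then given 0.4 μg/ml (final) biotin-LAG-3-Fc premixed for 1 h with titrated antibody, and incubated 1 h at 37° C. Bound fusion protein was detected with HRP-streptavidin and TMB, read at OD450. Antibody blocking of antigen binding to the cells was calculated from the signal.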
Target sequence in this assay (chain, as listed by the source limits assumed): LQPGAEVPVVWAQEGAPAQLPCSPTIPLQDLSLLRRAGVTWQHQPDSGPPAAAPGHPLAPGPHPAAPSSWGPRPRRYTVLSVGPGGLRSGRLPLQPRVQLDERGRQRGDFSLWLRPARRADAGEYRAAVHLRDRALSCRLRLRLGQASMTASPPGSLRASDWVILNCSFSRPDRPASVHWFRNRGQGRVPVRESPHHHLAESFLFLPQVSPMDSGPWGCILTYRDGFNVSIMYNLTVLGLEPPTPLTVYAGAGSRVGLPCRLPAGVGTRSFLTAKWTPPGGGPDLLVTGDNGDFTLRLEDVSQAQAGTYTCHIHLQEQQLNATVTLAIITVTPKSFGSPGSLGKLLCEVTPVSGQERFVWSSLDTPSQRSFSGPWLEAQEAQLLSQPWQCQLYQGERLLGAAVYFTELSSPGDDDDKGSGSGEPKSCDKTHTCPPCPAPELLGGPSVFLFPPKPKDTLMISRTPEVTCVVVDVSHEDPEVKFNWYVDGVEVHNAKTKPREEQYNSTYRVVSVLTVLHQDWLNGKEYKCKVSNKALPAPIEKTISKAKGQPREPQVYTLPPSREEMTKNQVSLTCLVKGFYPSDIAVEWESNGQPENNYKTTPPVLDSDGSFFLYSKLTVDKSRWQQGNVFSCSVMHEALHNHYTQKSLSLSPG

[4] = target: T2, LAG-3 extracellular domain with a Flag tag (human, UniProt P18627 23-434); test: SPR (Biacore), antibody captured on anti-human capture chip, LAG-3-Flag in flow
T2 construct: also called LAG-3-Flag; LAG-3-Flag antigen
T2 sequence: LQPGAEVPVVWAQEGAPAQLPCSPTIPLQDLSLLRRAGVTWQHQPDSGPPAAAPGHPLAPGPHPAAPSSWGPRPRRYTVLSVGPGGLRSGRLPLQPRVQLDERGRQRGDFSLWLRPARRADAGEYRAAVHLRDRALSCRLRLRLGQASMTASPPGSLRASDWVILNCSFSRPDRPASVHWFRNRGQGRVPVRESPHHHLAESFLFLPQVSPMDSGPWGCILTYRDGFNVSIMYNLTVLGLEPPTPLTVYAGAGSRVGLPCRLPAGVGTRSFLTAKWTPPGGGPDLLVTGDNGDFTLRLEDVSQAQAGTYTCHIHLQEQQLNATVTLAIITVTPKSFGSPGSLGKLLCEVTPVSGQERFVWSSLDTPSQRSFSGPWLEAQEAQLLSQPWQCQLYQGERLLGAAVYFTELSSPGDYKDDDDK
Text: 2. […] Then, the LAG-3-Flag antigen (produced in-house, SEQ ID NO:1) was flowed through the surface of the biochip, and the reaction signal was detected real time using a Biacore instrument to obtain the binding and dissociation curves, the value of affinity was obtained by fitting, see table 10 below. After each cycle of dissociation was finished in the experiment, the biochip was washed and regenerated with a regeneration solution provided in the human anti-capture kit.

B1: mAb303 (antibody, V domains shown)
VH: EVQLQQSGPVLVKPGASVKMSCKASGYTLTDYYMNWVKQSHGKSLEWIGVINPYNGDTAYNQKFKGKATLTVDKSSNTAYMEINSLTSEDSAVYYCTRDDGYYDYYFDVWGTGTTVTVSS
VL: DIQMTQSPSSLSASLGERVILTCRASQDIGSRLNWLQQGPDGTFKRLIYATSTLDSGVPKRFSGSRSGSDFSLTISSLESEDFVDYYCLQLASSPPTFGGGTKLEIK
notes: Murine hybridoma antibody; also called LAG-3 antibody mAb303; hybridoma clone mAb303
B1 showed an EC50 [1] of 0.172 nM, an IC50 [2] of 0.596 nM and an IC50 [3] of 0.596 nM. For the same binder, the Kd [4] was 0.0749 nM.

B2: mAb229 (antibody, V domains shown)
VH: QIQLVQSGPELKKPGETVKISCKASGYTFTTSGMSWVKQAPGKGLKWMGWINTYSGVPTYADDFKGRFAFSLETSASTAYLQINNLKNEDTATYFCARDNYDARDVYYYAMDYWGQGTSVTVSS
VL: DIQMTQSPASLSVSVGETVTITCRASENIYSNLAWYQQKQGKSPQLLVYAATNLADGVPSRFSGSGSGTQYSLKINSLQSEDFGSYYCQHFWITPWTFGGGTKLEIK
notes: Murine hybridoma antibody; also called LAG-3 antibody mAb229; hybridoma clone mAb229
For B2, the EC50 [1] was 0.129 nM, the IC50 [2] was 1.33 nM and the IC50 [3] was 1.33 nM. For the same binder, the Kd [4] was 0.0172 nM.
